Test [1] addresses spike protein (Spike, S protein) of SARS-CoV-2 (SARS-CoV-2, UniProt P0DTC2 14-1273). Briefly: cell-based or functional assay.
Test [2] concerns the target biotin-labeled SARS-COV-2 RBD domain (SARS-CoV-2, UniProt P0DTC2 319-541). Briefly: SPR, Biacore T200, biotin-labeled RBD on SA chip, antibody as analyte, 1:1 model.
The target is the same in test [3]. Briefly: SPR, Biacore T200, biotin-RBD on SA chip, antibody as analyte.
Test [4] has as its target S protein of the novel coronavirus SARS-CoV-2 (SARS-CoV-2, UniProt P0DTC2 14-1273). As to the kind of experiment: cell-based or functional assay.

Bounds are passed on as bounds.

B1: antigen-binding unit ABU-174 (antibody, V domains shown)
VH: QVQLQQWGAGLLKPSETLSLTCAVYGGSFSDYYWNWIRRPPGKGLEWIGEITHSGSTNYNPSLKSRVTISVDTSKNQFSLKLSSVTAADTAVYYCARGQGYGRVLLWFGEWGQGTLVTVSS
VL: EIVLTQSPATLSLSPGERATLSCRASQSVSTYLAWYQQKPGQAPRLLIYDASNRATGIPARFSGSGSGTDFTLTISSLEPEDFAVYYCQQRSNWITFGQGTRLEIK
Take B1: in test [1], the “IC50, Plaque Reduction Neutralization Test (PRNT), SARS-CoV-2 euvirus” value came to 0.5 µg/mL.

B2: antigen-binding unit ABU-190 (antibody, V domains shown)
VH: EVQLVESGGGLIQPGGSLRLSCAASGITVSSNYMSWVRQAPGKGLEWVSVIYSGGSTDYADSVKGRFTISRDKSKNTLYLQMNSLRAEDTAVYYCARDLGEAGGMDVWGQGTTVTVSS
VL: AIQLTQSPSSLSASVGDRVTITCRASQGISSYLAWYQQKPGKAPKLLIYAASTLQSGVPSRFSGSGSGTDFTLTISSLQPEDFATYYCQQLNSYPPAFGGGTKVEIK
Consider B2, for which the “IC50, Plaque Reduction Neutralization Test (PRNT), SARS-CoV-2 euvirus” value in test [1] was determined as 0.8 µg/mL.

B3: antigen-binding unit ABU-367 (antibody, V domains shown)
VH: EVQLVESGGGLIQPGGSLRLSCAASGIIVSSNYMTWVRQAPGKGLEWVSVIYSGGSTFYADSVKGRFTISRDNSKNTLYLQMSSLRAEDTAVYYCARDLGPYGMDVWGQGTTVTVSS
VL: DIQLTQSPSFLSASVGDRVTITCRASQGISSDLAWYQQKPGKAPNLLIYAASTLQSGVPSRFSGSGSGTEFTLTISSLQPEDFATYYCQQLNSDLYTFGQGTKLEIK
One may read the Kd as the constant that tells how readily two partners part at equilibrium. Lower therefore signals higher affinity. Take B3: binding in test [2] was put at a Kd of 0.18 nM.

B4: ABU-395 (antibody, V domains shown)
VH: EVQVVESGGGLVQPGGSLRLSCAASGFTVSFNYMSWVRQAPGKGLEWVSVIYPGGSTYYADSVKGRFTISRHNSKNTVYLQMNSLRAEDTAVYYCARDYGDFYFDYWGQGTLVTVSS
VL: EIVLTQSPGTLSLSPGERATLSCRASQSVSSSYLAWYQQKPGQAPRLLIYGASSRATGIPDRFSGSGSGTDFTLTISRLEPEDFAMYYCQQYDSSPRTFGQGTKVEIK
Take B4: the Kd in test [3] is under 10 nM. In test [4], the “IC50 for neutralizing SARS-CoV-2 pseudovirus (Huh-7 cells, luciferase)” value was under 0.1 µg/mL.

B5: ABU-392 (antibody, V domains shown)
VH: EVQLVESGGGLIQPGGSLRLSCAASEFIVSRNYMSWVRQAPGKGLEWVSVIYSGGSTYYADSVKGRFTISRDNSKNTLNLQMNSLRAEDTAVYYCARDYGDYYFDYWGQGTLVTVSS
VL: EIVLTQSPGTLSLSPGERATLSCRASQGVSSFLAWYQQKPGQAPRLLIHGASSRATGIPDRFSGSGSGTDFTLTITRLEPEDFAVYYCQQYGSSPRTFGQGTKVEIK
Take B5: in test [3], the Kd was under 10 nM. Further, the “IC50 for neutralizing SARS-CoV-2 pseudovirus (Huh-7 cells, luciferase)” value in test [4] is under 0.1 µg/mL.

B6: antigen-binding unit ABU-297 (antibody, V domains shown)
VH: EVQLLESGGGVVQPGGSLRLSCAASGFAFTTYAMNWVRQAPGRGLEWVSAISDGGGSAYYADSVKGRFTISRDNSKNTLYLQMNSLRAEDTAVYYCAKTRGRGLYDYVWGSKDYWGQGTLVTVSS
VL: not shown
The molecule B6 registered a Kd in test [2] of 0.824 nM.

These data come from patent US20230183322A1 (PEKING UNIVERSITY, published 2023).
